The results in this text go back to patent publication US20060240570A1.

The labels stand for the following.
B1: phagemid CS1-31p, displayed peptide … (peptide)
peptide: CSFFYSLCYCWCS
modifications: disulfide (positions not given here); also: disulfide pairing among 4 Cys not given here, displayed on phagemid

Positions of bridges follow the written chain, without caps; N, C: chain ends. No end group written: not given here.

The first assay has as its target unrelated control antibody. Description: phage ELISA, 10^10 phagemid, wells coated with control mAb. (In general: ELISA stands for enzyme-linked immunosorbent assay.)
Take CSLFYLWDQDRCS (disulfide 1-12 (inferred); also: displayed on phagemid) [phagemid CS1-2p, displayed peptide …]: the ELISA (absorbance units) (absorbance units) was 0.228.

B1: the ELISA (absorbance units) (absorbance units) is 0.125.

On to CSFRYQWDMFRCS (disulfide 1-12 (inferred); also: displayed on phagemid) [phagemid CS1-11p, displayed peptide …], for which the ELISA (absorbance units) (absorbance units) came out at 0.242.

As to CSGLYPWDYFMCS (disulfide 1-12 (inferred); also: displayed on phagemid) [phagemid CS1-29p, displayed peptide …], the ELISA (absorbance units) (absorbance units) stood at 0.148.

CSFRYLWDQDRCS (disulfide 1-12 (inferred); also: displayed on phagemid) [phagemid CS1-6p, displayed peptide …] displayed an ELISA (absorbance units) (absorbance units) of 0.203.

CSGLYPWDMFRCS (disulfide 1-12 (inferred); also: displayed on phagemid) [phagemid CS1-9p, displayed peptide …] came in with an ELISA (absorbance units) (absorbance units) of 0.213.

The next assay deals with unrelated control antibody. Description: phage ELISA, 10^9 phagemid, wells coated with control mAb.
CSLFYLWDQDRCS (disulfide 1-12 (inferred); also: displayed on phagemid) [phagemid CS1-2p, displayed peptide …] showed an ELISA (absorbance units) (absorbance units) of 0.199.

B1 yielded an ELISA (absorbance units) (absorbance units) of 0.118.

Consider CSFRYQWDMFRCS (disulfide 1-12 (inferred); also: displayed on phagemid) [phagemid CS1-11p, displayed peptide …], for which the ELISA (absorbance units) (absorbance units) came to 0.258.

Consider CSGLYPWDYFMCS (disulfide 1-12 (inferred); also: displayed on phagemid) [phagemid CS1-29p, displayed peptide …], for which the ELISA (absorbance units) (absorbance units) came out at 0.147.

Molecule CSFRYLWDQDRCS (disulfide 1-12 (inferred); also: displayed on phagemid) [phagemid CS1-6p, displayed peptide …] had an ELISA (absorbance units) (absorbance units) of 0.172.

In the case of CSGLYPWDMFRCS (disulfide 1-12 (inferred); also: displayed on phagemid) [phagemid CS1-9p, displayed peptide …], the ELISA (absorbance units) (absorbance units) is 0.204.

A further assay concerns the target unrelated control antibody. Description: phage ELISA, 10^8 phagemid, wells coated with control mAb.
CSLFYLWDQDRCS (disulfide 1-12 (inferred); also: displayed on phagemid) [phagemid CS1-2p, displayed peptide …] gave an ELISA (absorbance units) (absorbance units) of 0.188.

For the molecule B1, the ELISA (absorbance units) (absorbance units) worked out at 0.116.

In the case of CSFRYQWDMFRCS (disulfide 1-12 (inferred); also: displayed on phagemid) [phagemid CS1-11p, displayed peptide …], the ELISA (absorbance units) (absorbance units) was 0.252.

As for CSGLYPWDYFMCS (disulfide 1-12 (inferred); also: displayed on phagemid) [phagemid CS1-29p, displayed peptide …], the ELISA (absorbance units) (absorbance units) came out at 0.125.

For CSFRYLWDQDRCS (disulfide 1-12 (inferred); also: displayed on phagemid) [phagemid CS1-6p, displayed peptide …], the ELISA (absorbance units) (absorbance units) amounted to 0.173.

For CSGLYPWDMFRCS (disulfide 1-12 (inferred); also: displayed on phagemid) [phagemid CS1-9p, displayed peptide …], the ELISA (absorbance units) (absorbance units) was 0.209.
